# B1: 세포질 침투 항체 TMab4 (antibody, V domains shown)
# VH: EVQLVESGGGLVQPGGSLRLSCAASGYTFTSYVMHWVRQAPGKGLEWVSAINPYNDGNYYADSVKGRFTISRDNSRKTLYLQMNSLRAEDTAVYYCARGAYKRGYAMDYWGQGTTVTVSS
# VL: DLVMTQSPSSLSASVGDRVTITCKSSQSLFNSRTRKNYLAWYQQKPGKAPKLLIYWASTRESGVPSRFSGSGSGTDFTLTISSLQPEDFATYYCQQYYYHMYTFGQGTKVEIKR
# notes: Full IgG format (CH1-hinge-CH2-CH3 and CL, detected with anti-human Fc); also called cytotransmab; CT
# Biological target: T1, mCherry H-RAS G12V (NIH3T3 세포주에서 발현) (UniProt P01112 1-186)
# T1 construct: whole, on cells; Intracellular, at the inner face of the cell membrane; also called 세포내 활성화된 H-RAS G12V 돌연변이; 활성화된 RAS; not shown: mCherry red fluorescent protein
# Assay: confocal microscopy, overlap in NIH3T3 cells expressing mCherry H-RAS G12V
binder,measurement,value
B1,binding result,no binding (tested: 2 μM)

# Reference: patent KR20180129514A (dated 2018)
